# Results from patent publication US20200270586A1.
# Target: LgTrip 3546 (with His tag; SEQ ID NO: 51)
# Test: luminescence complementation; SmTrip9 Kd
# Conditions: modification not given
# LgTrip 3546 (with His tag; SEQ ID NO: 51), sequence (chain, as listed by the source): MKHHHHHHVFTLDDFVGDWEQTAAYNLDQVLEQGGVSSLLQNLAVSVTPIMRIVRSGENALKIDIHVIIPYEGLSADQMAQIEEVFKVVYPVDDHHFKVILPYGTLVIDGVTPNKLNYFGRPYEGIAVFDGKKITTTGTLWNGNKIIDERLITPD
row,Binder,Kd [nM]
1,KKMLFRVTIQKWK [760],20
2,DKMLFTVTIEKWK [753],150
3,DKMLFRVTIEKWK [742],1000
4,DKLLFTVTINKYK [800],9750
5,DKMLFTVTIGKWK [749],1060
6,DKMLFKVTIEKYK [785],380
7,DKLLFTVTIGKYK [794],230
8,DKLLFTVTINKWK [799],210
9,KKLLFRVTIQKWK [761],20
10,DRMLFRVTIQRWR [762],120
11,GKMLFTVTINKWK [782],360
12,DKMLFRVTINKWK [784],410
13,DKMLFRVTIQKWK [738],110
14,GRMLFRVTINRWR [768],100
15,DRMLFRVTIERWR [770],350
16,GKMLFKVTINKWK [781],380
17,ERMLFRVTIGRWR [766],70
18,DKMLFKVTIQKYK [783],240
19,DKMLFKVTINKWK [787],730
20,DKMLFTVTINKWK [786],500
21,DKLLFTVTIGKWK [793],540

# Target: LgTrip 3546 (with His tag; SEQ ID NO: 51)
# Test: luminescence complementation
# Conditions: modification not given
row,Binder,Kd [nM]
1,EKMLFRVTIGRWK [709],180
2,DKMLFRVTIGKWK [739],200
3,GKMLFRVSINSWK [614],2580
4,EKLLFRVTIGKYK [726],640
5,EKMLFTVTIGKWK [710],1290
6,DKMLFTVTIEKWK [753],120
7,GKMKFRVTIESWK [717],1140
8,EKMLFTVTIGRWK [712],370
9,DKMLFRVTIEKWK [742],750
10,ELMLFRVTINSWK [655],15900
11,GKMLFRVTINRWK [701],120
12,EQMLFRVTINSWK [656],6260
13,DQMLFRVTINSWK [658],4380
14,RLMLFRVTIGKWK [676],20
15,DKMLFTVTIGKWK [749],1700
16,EKLLFTVTIGKWK [711],500
17,KQMLFRVTINSWK [654],60
18,GKMLFRVTISKWK [670],30
19,GKMLFRVNINSWK [613],5250
20,DKLLFKVTIQKYK [747],100
21,GKMLFRVTITKWK [672],10
22,RQMLFRVTINSWK [652],30
23,DKLLFKVTIEKYK [755],1450
24,GSMLFRVTINSYK [619],1510
25,EKMLFTVTIEKWK [720],360
26,DKMLFRVTIQKWK [738],230
27,DKLLFKVTIQKWK [746],1100

row,Binder,Kd [nM]
1,GKMWFRVTINSWK [617],320
2,DKLLFKVTIEKWK [754],750
3,GKMSFRVTINSWK [616],1230
4,DKMLFKVTIQKWK [744],1130
5,GKMKFRVTIRSWK [719],370
6,DKLLFKVTIGKYK [751],610
7,DKMLFKVTIGKWK [748],440
8,KLMLFRVTINSWK [653],160
9,GKMLFRVTIEKWK [703],110
10,DLMLFRVTINSWK [657],70
11,GKMLFRVWINSWK [615],350
12,EKMLFRVTIEKWK [707],1120
13,DKMLFRVTIGNWK [740],3650
14,GKMLFRVTIKKWK [673],40
15,DKMLFRVTIESWK [722],17800
16,GKMKFRVTIQSWK [716],290
17,EKMLFRVTIGKWK [708],280
18,GKMNFRVTINSWK [618],2690
19,EKMLFKVTIQKWK [714],220
20,GKMLFRVTIGNWK [669],380
21,GKMLFRVTIKSWK [621],40
22,RLMLFRVTINSWK [651],40
23,DKMLFKVTIEKWK [752],320
24,GKMKFRVTIKSWK [718],380
25,DKMLFRVTIQNWK [741],12600
26,DKLLFKVTIGKWK [750],350

# Target: LgTrip 3546 (with His tag; SEQ ID NO: 51)
# Test: not given
# Conditions: modification not given
row,Binder,Kd [nM]
1,SSWKRGSMLFRVWINS [427],230
